Laboratory results reported in patent US20220251184A1 (Regeneron, published 2022).

T1: Human BMP3b (human, UniProt P55107 369-478, limits assumed)
T1 sequence (looked up): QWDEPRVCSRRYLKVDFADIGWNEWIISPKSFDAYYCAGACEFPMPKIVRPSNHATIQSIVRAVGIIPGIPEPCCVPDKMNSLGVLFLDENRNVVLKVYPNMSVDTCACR

T2: Human BMP12/GDF7 (human, UniProt Q7Z4P5 322-450, limits assumed)
T2 sequence (looked up): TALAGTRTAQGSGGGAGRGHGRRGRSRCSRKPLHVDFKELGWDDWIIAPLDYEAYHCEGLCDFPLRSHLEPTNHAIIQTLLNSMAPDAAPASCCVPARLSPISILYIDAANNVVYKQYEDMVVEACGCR

T3: human BMP6 (R&D Systems, Cat #507-BP) (human, UniProt P22004 375-513, limits assumed)
T3 construct: Bought protein (R&D Systems 507-BP or 507-BP/CF); also called hBMP6; hBMP-6
T3 sequence: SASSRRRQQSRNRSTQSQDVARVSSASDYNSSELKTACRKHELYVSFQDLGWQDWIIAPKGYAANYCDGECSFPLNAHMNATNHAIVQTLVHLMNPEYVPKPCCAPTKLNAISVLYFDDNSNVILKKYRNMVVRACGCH

T4: Human GDF3 (human, UniProt Q9NR23 251-364)
T4 sequence (looked up): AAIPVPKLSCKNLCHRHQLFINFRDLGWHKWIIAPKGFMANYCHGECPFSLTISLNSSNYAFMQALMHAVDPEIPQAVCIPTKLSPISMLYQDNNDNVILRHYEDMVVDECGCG

T5: Human BMP5 (human, UniProt P22003 317-454, limits assumed)
T5 sequence (looked up): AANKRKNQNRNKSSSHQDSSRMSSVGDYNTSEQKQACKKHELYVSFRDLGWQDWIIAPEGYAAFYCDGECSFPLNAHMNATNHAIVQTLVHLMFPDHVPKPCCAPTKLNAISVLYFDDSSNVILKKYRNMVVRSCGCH


Legend:
Human BMP3b = molecular target: T1, Human BMP3b; experiment: BLI (Octet HTX), mAb captured on Protein A sensor, 100 nM ligand, 25 C
Procedure: (§1) Binding cross-reactivity of anti-BMP6 monoclonal antibodies to BMP6 family members, (Human: BMP6, BMP5, BMP7, BMP8A, BMP9, BMP10, BMP12, BMP14, BMP3b, Activin A, and GDF3 and mouse: BMP6 and GDF6) was determined using a real-time Bio-Layer Interferometry (BLI) biosensor using Octet HTX instrument. All binding studies were performed in 10 mM HEPES, 150 mM NaCl, 3 mM EDTA, 1 mg/mL BSA, 50 μg/mL Heparin, and 0.05% v/v Surfactant Tween-20, pH 7.4 (HBS-EBHT) buffer at 25° C. with the plate shaking at a speed of 1000 rpm. To assess binding cross-reactivity, Protein A coated Octet biosensor (Pall ForteBio Corp., #18-5010) was first dipped in wells containing […] of anti-BMP6 monoclonal antibodies for 4 minutes followed by submerging in wells containing 100 nM of different BMP6 family members for 4 minutes. The biosensors were washed in HBS-EBHT buffer in between every step of the experiment. At the end of each cycle, the Protein A biosensor was regenerated using three alternate 5 second dips in 10 mM Glycine pH 2.0 and 10 second dip HBS-EBHT buffer. The real-time binding response was monitored during the course of the experiment and the binding response at the end of every step was recorded and tabulated as shown in Tables 8A and 8B.

Human BMP12/GDF7 = molecular target: T2, Human BMP12/GDF7; experiment: as above
Procedure: as §1

[1] = molecular target: T3, human BMP6 (R&D Systems, Cat #507-BP); experiment: competition ELISA, antibody titrated against 2.5 nM biot-hBMP6, plate-coated hHJV-hFc as competitor
Procedure: Experiments were carried out using the following procedure. Receptors were coated in Hank's Balanced Salt Solution (HBSS) separately at a concentration of 5 μg/mL for hHJV-hFc and […] for hActR2a-hFc on a 96-well microtiter plate overnight at 4° C. […] In other microtiter plates, a constant amount of 2.5 nM of biot-BMP6 (for HJV capture) or 1.5 nM biot-BMP6 (for ActR2a capture) protein was titrated with anti-BMP6 antibodies or isotype control antibodies ranging from 5.1 pM to 300 nM in serial dilution in HBSS with 1.0% BSA and […] heparin. These antibody-protein complexes, after a one-hour incubation, were transferred to the microtiter plate coated with hHJV-hFc or hActR2a-hFc. After two hours of incubation at room temperature, the wells were washed, and plate-bound biot-BMP6 was detected with neutravidin conjugated with horseradish peroxidase (HRP) (Thermo Scientific, Cat #31030). The plates were then developed using TMB substrate solution (BD Biosciences, Cat #555214) according to manufacturer's recommendation and absorbance at 450 nm was measured on a Victor X5 plate reader.
Data analysis was performed using a sigmoidal dose-response model within Prism™ software (GraphPad). […]

Human GDF3 = molecular target: T4, Human GDF3; experiment: BLI (Octet HTX), mAb captured on Protein A sensor, 100 nM ligand, 25 C
Procedure: as §1

Human BMP5 = molecular target: T5, Human BMP5; experiment: as above
Procedure: as §1

[2] = molecular target: T3, human BMP6 (R&D Systems, Cat #507-BP); experiment: competition ELISA, antibody titrated against 2.5 nM biot-hBMP6, plate-coated hHJV-hFc as competitor; value below the lower limit of quantitation of 1.25E-09 M
Procedure: These antibody-protein complexes, after a one-hour incubation, were transferred to the microtiter plate coated with hHJV-hFc or hActR2a-hFc. After two hours of incubation at room temperature, the wells were washed, and plate-bound biot-BMP6 was detected with neutravidin conjugated with horseradish peroxidase (HRP) (Thermo Scientific, Cat #31030). The plates were then developed using TMB substrate solution (BD Biosciences, Cat #555214) according to manufacturer's recommendation and absorbance at 450 nm was measured on a Victor X5 plate reader.
Data analysis was performed using a sigmoidal dose-response model within Prism™ software (GraphPad). […] Percent blockade at indicated concentration of the antibody tested was calculated as an indicator of the ability of the antibodies to block the binding of 2.5 nM or 1.5 nM of biot-BMP6 to hHJV-hFc or hActR2a-hFc on the plate, respectively. In the calculation, binding signal of the sample of the constant biot-BMP6 without the presence of the antibody for each assay was referenced as 100% binding or 0% blocking; and the baseline signal of the sample of buffer only without the presence of biot-BMP6 was referenced as 0% binding or 100% blocking.
The isotype control antibody blocked <30% at concentrations up to 300 nM antibody, as expected.

Row | Binder | binding response (Human BMP3b) [nm] | binding response (Human BMP12/GDF7) [nm] | IC50 [1] [nM] | binding response (Human GDF3) [nm] | binding response (Human BMP5) [nm] | IC50 [2] [nM]
1 | H4H17871P (antibody, V domains shown, Fully human antibody; also called anti-BMP6 monoclonal antibody; BMP6 antibody of the invention) VH: EVQLVESGGGLVQPGGSLRLSCAASGFTFNNYAMSWVRQAPGKGLEWVSAISGSGDSTYYADSVKGRFTISRDNSKNTLYLQMNSLRAEDTAVYYCAKRSRSSPFDPWGQGTLVTVSS VL: not shown | 0.19 | 0.01 | 1.61 |  |  | 
2 | H4H17855P (antibody, V domains shown, Fully human antibody; also called anti-BMP6 monoclonal antibody; BMP6 antibody of the invention) VH: EVQLVESGGGLVQPGGSLRLSCAASGFTFSSYAMSWVRQAPGKGLEWVSAISGSGGRTYYTDSVKGRFTMSRDNSKNTLYLQMNSLRAEDTAVYYCAKRPYNSPFDPWGQGTLVTVSS VL: EIVLTQSPGTLSLSPGEGATLSCRASQSVSSSYLAWYQQKPGQAPRLLIYGASSRATGIPDRFSGSGSGTDFTLTISRLEPEDFVVYYCQHFGGTPFTFGGGTKVEIK |  |  |  | 0.03 | 0.01 | 0.522
